The values that follow are results of earlier work, collected in article PMC6353226.

In data set [1] the target is IGF1R pY1165 (Homo sapiens) (UniProt P08069).
Data set [2] deals with IGF1R pY1161 (Homo sapiens) (UniProt P08069).

Regarding YES1 SH2 (from UniProt P07947), the Kd in data set [1] and in data set [2] was 0.9 µM in each case.
